From patent US20120329707A1 (INDIANA UNIVERSITY RESEARCH AND TECHNOLOGY, published 2012)
Numbered stars: 1 amine (or outer) side, 2 acyl side, 3 side chain; on linkers, the order of the positions; unused ones are H or OH. Square brackets hold non-standard residues; d marks the D form. Primed or numbered codes have the meaning given here. Side chains are listed from the residue outwards. Ends that are not written are not given here. * marks the point of attachment. 40K‑TE PEG = 40 kDa PEG covalently bound via thioether, formed by reaction of the free thiol of the peptide (Cys side chain) with an iodoacetic-functionalized PEG; 40K‑TE PEG″ = 40 kDa PEG bound to Cys via thioether made from an iodoacetyl-functionalised PEG; γGlu = O=C(O)[C@H](CCC(=O)[*:2])N[*:1]; Palmitoyl = CCCCCCCCCCCCCCCC(=O)*; Orn = NCCC[C@H](N)C(=O)O; Aib = CC(C)(N)C(=O)O

T1: GIP receptor
T1 sequence (P48546 whole entry, species assumed, looked up): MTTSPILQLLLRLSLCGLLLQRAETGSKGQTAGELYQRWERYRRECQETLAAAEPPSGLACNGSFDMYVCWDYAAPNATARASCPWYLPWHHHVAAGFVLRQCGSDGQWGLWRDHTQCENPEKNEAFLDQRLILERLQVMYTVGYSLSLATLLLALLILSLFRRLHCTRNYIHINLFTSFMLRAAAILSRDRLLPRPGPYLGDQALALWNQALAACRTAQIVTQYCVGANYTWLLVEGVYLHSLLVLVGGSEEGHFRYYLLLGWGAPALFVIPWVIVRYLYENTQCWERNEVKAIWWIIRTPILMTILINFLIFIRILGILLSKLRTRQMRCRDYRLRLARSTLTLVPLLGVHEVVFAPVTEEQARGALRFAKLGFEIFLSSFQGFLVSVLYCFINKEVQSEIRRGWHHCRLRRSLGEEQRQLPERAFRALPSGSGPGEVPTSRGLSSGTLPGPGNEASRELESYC


What was measured:
Assay in all cases: cell-based or functional assay
glucagon receptor = molecular target: glucagon receptor
GIP receptor = molecular target: T1, GIP receptor
GLP-1 receptor = molecular target: GLP-1 receptor

| Binder | EC50 (nM) at glucagon receptor (glucagon receptor) [nM] | EC50 (nM) at GIP receptor (GIP receptor) [nM] | EC50 (nM) at GLP-1 receptor (GLP-1 receptor) [nM] |
| --- | --- | --- | --- |
| H[Aib]QGTFTSDK([γGlu-γGlu-Palmitoyl])SKYLD[Aib]RAAQDFVQWLMDTK[dA]-OH [peptide of SEQ ID NO: 32] | 0.007 | 2.08 | 0.008 |
| H[Aib]QGTFTSDK([γGlu-γGlu-Palmitoyl])SKYLD[Aib]RAAQDFVQWLMKTK[dE]-OH [peptide of SEQ ID NO: 37] | 0.018 | 3.3 | 0.016 |
| H[Aib]QGTFTSDYSKYLDERRA[Aib]EFVC(40K‑TE PEG″)WLLDGGPSSGAPPPS-NH2 [peptide of SEQ ID NO: 35] | 1.18 | 16.1 | 0.085 |
| H[Aib]QGTFTSDYSKYLDEKRA[Aib]EFVC(40K‑TE PEG)WLMDT-NH2 [peptide of SEQ ID NO: 15] | 1.1 | 316 | 0.071 |
| H[Aib]QGTFTSDK([γGlu-Palmitoyl])SKYLD[Aib]RAAQDFVQWLKDGRG-NH2 (N-terminus assumed; SMILES CCCCCCCCCCCCCCCC(=O)N[C@@H](CCC(=O)NCCCC[C@H](NC(=O)[C@H](CC(=O)O)NC(=O)[C@H](CO)NC(=O)[C@@H](NC(=O)[C@H](Cc1ccccc1)NC(=O)[C@@H](NC(=O)CNC(=O)[C@H](CCC(N)=O)NC(=O)C(C)(C)NC(=O)[C@@H](N)Cc1c[nH]cn1)[C@@H](C)O)[C@@H](C)O)C(=O)N[C@@H](CO)C(=O)N[C@@H](CCCCN)C(=O)N[C@@H](Cc1ccc(O)cc1)C(=O)N[C@@H](CC(C)C)C(=O)N[C@@H](CC(=O)O)C(=O)NC(C)(C)C(=O)N[C@@H](CCCNC(=N)N)C(=O)N[C@@H](C)C(=O)N[C@@H](C)C(=O)N[C@@H](CCC(N)=O)C(=O)N[C@@H](CC(=O)O)C(=O)N[C@@H](Cc1ccccc1)C(=O)N[C@H](C(=O)N[C@@H](CCC(N)=O)C(=O)N[C@@H](Cc1c[nH]c2ccccc12)C(=O)N[C@@H](CC(C)C)C(=O)N[C@@H](CCCCN)C(=O)N[C@@H](CC(=O)O)C(=O)NCC(=O)N[C@@H](CCCNC(=N)N)C(=O)NCC(N)=O)C(C)C)C(=O)O) [peptide of SEQ ID NO: 36] | 0.028 | 0.47 | 0.003 |
| H[Aib]QGTFTSDK([γGlu-γGlu-Palmitoyl])SKYLD[Aib]RAAQDFVQWLL[Aib]GRG-NH2 (N-terminus assumed; SMILES CCCCCCCCCCCCCCCC(=O)N[C@@H](CCC(=O)N[C@@H](CCC(=O)NCCCC[C@H](NC(=O)[C@H](CC(=O)O)NC(=O)[C@H](CO)NC(=O)[C@@H](NC(=O)[C@H](Cc1ccccc1)NC(=O)[C@@H](NC(=O)CNC(=O)[C@H](CCC(N)=O)NC(=O)C(C)(C)NC(=O)[C@@H](N)Cc1c[nH]cn1)[C@@H](C)O)[C@@H](C)O)C(=O)N[C@@H](CO)C(=O)N[C@@H](CCCCN)C(=O)N[C@@H](Cc1ccc(O)cc1)C(=O)N[C@@H](CC(C)C)C(=O)N[C@@H](CC(=O)O)C(=O)NC(C)(C)C(=O)N[C@@H](CCCNC(=N)N)C(=O)N[C@@H](C)C(=O)N[C@@H](C)C(=O)N[C@@H](CCC(N)=O)C(=O)N[C@@H](CC(=O)O)C(=O)N[C@@H](Cc1ccccc1)C(=O)N[C@H](C(=O)N[C@@H](CCC(N)=O)C(=O)N[C@@H](Cc1c[nH]c2ccccc12)C(=O)N[C@@H](CC(C)C)C(=O)N[C@@H](CC(C)C)C(=O)NC(C)(C)C(=O)NCC(=O)N[C@@H](CCCNC(=N)N)C(=O)NCC(N)=O)C(C)C)C(=O)O)C(=O)O) [peptide of SEQ ID NO: 29] | 0.014 | 1.65 | 0.007 |
| H[Aib]QGTFTSDK([γGlu-γGlu-Palmitoyl])SKYLD[Aib]RAAQDFVQWLMKGRG-OH (N-terminus assumed; SMILES CCCCCCCCCCCCCCCC(=O)N[C@@H](CCC(=O)N[C@@H](CCC(=O)NCCCC[C@H](NC(=O)[C@H](CC(=O)O)NC(=O)[C@H](CO)NC(=O)[C@@H](NC(=O)[C@H](Cc1ccccc1)NC(=O)[C@@H](NC(=O)CNC(=O)[C@H](CCC(N)=O)NC(=O)C(C)(C)NC(=O)[C@@H](N)Cc1c[nH]cn1)[C@@H](C)O)[C@@H](C)O)C(=O)N[C@@H](CO)C(=O)N[C@@H](CCCCN)C(=O)N[C@@H](Cc1ccc(O)cc1)C(=O)N[C@@H](CC(C)C)C(=O)N[C@@H](CC(=O)O)C(=O)NC(C)(C)C(=O)N[C@@H](CCCNC(=N)N)C(=O)N[C@@H](C)C(=O)N[C@@H](C)C(=O)N[C@@H](CCC(N)=O)C(=O)N[C@@H](CC(=O)O)C(=O)N[C@@H](Cc1ccccc1)C(=O)N[C@H](C(=O)N[C@@H](CCC(N)=O)C(=O)N[C@@H](Cc1c[nH]c2ccccc12)C(=O)N[C@@H](CC(C)C)C(=O)N[C@@H](CCSC)C(=O)N[C@@H](CCCCN)C(=O)NCC(=O)N[C@@H](CCCNC(=N)N)C(=O)NCC(=O)O)C(C)C)C(=O)O)C(=O)O) [peptide of SEQ ID NO: 31] | 0.016 | 2.34 | 0.007 |
| H[Aib]QGTFTSDK([γGlu-γGlu-Palmitoyl])SKYLD[Aib]RAAQDFVQWLM[Orn]T[Orn]E-OH (N-terminus assumed; SMILES CCCCCCCCCCCCCCCC(=O)N[C@@H](CCC(=O)N[C@@H](CCC(=O)NCCCC[C@H](NC(=O)[C@H](CC(=O)O)NC(=O)[C@H](CO)NC(=O)[C@@H](NC(=O)[C@H](Cc1ccccc1)NC(=O)[C@@H](NC(=O)CNC(=O)[C@H](CCC(N)=O)NC(=O)C(C)(C)NC(=O)[C@@H](N)Cc1c[nH]cn1)[C@@H](C)O)[C@@H](C)O)C(=O)N[C@@H](CO)C(=O)N[C@@H](CCCCN)C(=O)N[C@@H](Cc1ccc(O)cc1)C(=O)N[C@@H](CC(C)C)C(=O)N[C@@H](CC(=O)O)C(=O)NC(C)(C)C(=O)N[C@@H](CCCNC(=N)N)C(=O)N[C@@H](C)C(=O)N[C@@H](C)C(=O)N[C@@H](CCC(N)=O)C(=O)N[C@@H](CC(=O)O)C(=O)N[C@@H](Cc1ccccc1)C(=O)N[C@H](C(=O)N[C@@H](CCC(N)=O)C(=O)N[C@@H](Cc1c[nH]c2ccccc12)C(=O)N[C@@H](CC(C)C)C(=O)N[C@@H](CCSC)C(=O)N[C@@H](CCCN)C(=O)N[C@H](C(=O)N[C@@H](CCCN)C(=O)N[C@@H](CCC(=O)O)C(=O)O)[C@@H](C)O)C(C)C)C(=O)O)C(=O)O) [peptide of SEQ ID NO: 33] | 0.023 | 3.96 | 0.019 |
| H[Aib]QGTFTSDK([γGlu-Palmitoyl])SKYLD[Aib]RAAQDFVQWLLDGRG-NH2 (N-terminus assumed; SMILES CCCCCCCCCCCCCCCC(=O)N[C@@H](CCC(=O)NCCCC[C@H](NC(=O)[C@H](CC(=O)O)NC(=O)[C@H](CO)NC(=O)[C@@H](NC(=O)[C@H](Cc1ccccc1)NC(=O)[C@@H](NC(=O)CNC(=O)[C@H](CCC(N)=O)NC(=O)C(C)(C)NC(=O)[C@@H](N)Cc1c[nH]cn1)[C@@H](C)O)[C@@H](C)O)C(=O)N[C@@H](CO)C(=O)N[C@@H](CCCCN)C(=O)N[C@@H](Cc1ccc(O)cc1)C(=O)N[C@@H](CC(C)C)C(=O)N[C@@H](CC(=O)O)C(=O)NC(C)(C)C(=O)N[C@@H](CCCNC(=N)N)C(=O)N[C@@H](C)C(=O)N[C@@H](C)C(=O)N[C@@H](CCC(N)=O)C(=O)N[C@@H](CC(=O)O)C(=O)N[C@@H](Cc1ccccc1)C(=O)N[C@H](C(=O)N[C@@H](CCC(N)=O)C(=O)N[C@@H](Cc1c[nH]c2ccccc12)C(=O)N[C@@H](CC(C)C)C(=O)N[C@@H](CC(C)C)C(=O)N[C@@H](CC(=O)O)C(=O)NCC(=O)N[C@@H](CCCNC(=N)N)C(=O)NCC(N)=O)C(C)C)C(=O)O) [peptide of SEQ ID NO: 30] | 0.933 | 9.06 | 0.0082 |
